Reference: PMC2926592

Legend:
[1] = biological target: human XRCC1 P161L population variant, recombinant, S-peptide- and His-tagged (human) (UniProt P18887); experiment: pull-down
[2] = biological target: human XRCC1 R109A variant, recombinant, S-peptide- and His-tagged (human) (UniProt P18887); experiment: pull-down

**Q.** How did the percent decrease in POLβ retention against WT XRCC1 [1] turn out when “DNA polymerase β (POLβ), recombinant (from UniProt P06746 1-335) (enzyme)” was run?
**A.** Its percent decrease in POLβ retention against WT XRCC1 is 20%.

**Q.** And the fold decrease in POLβ retention against WT XRCC1 [2]?
**A.** The fold decrease in POLβ retention against WT XRCC1 was 5 fold.

**Q.** What about the percent decrease in POLβ retention against WT XRCC1 [2] of the same substance?
**A.** The percent decrease in POLβ retention against WT XRCC1 was 83%.
